Measured values as given in the supplement of paper PMC6757056.
± gives the standard deviation of the averaged measurements.

B1: library; a variant is named by its letters at N, in order (parent)
chain: GCUGUCACCGGUGUAUUACCCUAGUGGUCGACCGGUCUGAUGAGUCUNNNNNNAGACGAAACAGC

Experiments:
hypoxanthine [1] = variants of: B1; assay: FACS-Seq fitted mean relative fluorescence mCherry/BFP without ligand (log10 relative fluorescence); ligand: hypoxanthine (xanthine aptamer); higher = higher reporter protein expression; settings: HEK293T, ligand present: no
In short: (§1)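 An mCherry reporter containing the ribozyme switch and an EF1α-BFP marker were introduced by lentivirus into HEK293T libraries. Cells were enriched, incubated 48 h with or without ligand, sorted into 6 bins by mCherry/BFP, and bin genomic DNA was PCR-amplified, barcoded and sequenced on MiSeq. Fluorescence represents the normalized fitted normal mean of the bin counts. Fitting was done on log10(mCherry/BFP), scaling to five spiked-in control ribozymes.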

hypoxanthine [2] = variants of: B1; assay: normalized RNA/DNA level with ligand (relative to sTRSVctl = 100) (log10 (% of sTRSVctl)); ligand: hypoxanthine (xanthine aptamer); higher = less ribozyme self-cleavage, higher mRNA level; settings: ligand concentration (+) RNA-Seq: 5 mM, HEK293T, reporter: mCherry (pCS4076), ligand present: yes
In short: (§2)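 Library plasmids carrying ribozyme switches linked to mCherry, or to eGFP in some ligand experiments, were transfected into HEK293T at 4 µg per 6-well well, with any ligand added 1 h earlier. Seventy-two hours on, total RNA was extracted with EDTA and reverse-transcribed, amplified, barcoded and sequenced. RNA level was RNA over DNA reads normalized to a spiked-in non-cleaving sequence or to the top sequences, then scaled and log-transformed. The top set was 25 sequences, the transform was ×100 and log10, and sequences needed ≥100 DNA reads.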

hypoxanthine [3] = variants of: B1; assay: normalized RNA/DNA level without ligand (relative to sTRSVctl = 100) (log10 (% of sTRSVctl)); ligand: hypoxanthine (xanthine aptamer); higher = less ribozyme self-cleavage, higher mRNA level; settings: HEK293T, reporter: mCherry (pCS4076), ligand present: no
In short: as §2

hypoxanthine [4] = variants of: B1; assay: FACS-Seq fitted mean relative fluorescence mCherry/BFP with ligand (log10 relative fluorescence); ligand: hypoxanthine (xanthine aptamer); ligand concentration (+) FACS-Seq: 5 mM; higher = higher reporter protein expression; settings: HEK293T, ligand present: yes
In short: as §1

Row | Variant | FACS-Seq fitted mean (log10) (hypoxanthine [1]) | normalized RNA/DNA level with ligand (log10) (hypoxanthine [2]) | normalized RNA/DNA level without ligand (log10) (hypoxanthine [3]) | FACS-Seq fitted mean (log10) (hypoxanthine [4])
1 | AGUCGU | 0.577 ± 0.17 | 1.903 ± 0.013 | 1.68 ± 0.029 | 0.561 ± 0.15
2 | GGUCUA | 0.4701 ± 0.0031 | 1.896 ± 0.0023 | 1.9 ± 0.022 | 0.586 ± 0.022
3 | UGUCUA | -0.725 ± 0.058 | 1.95 ± 0.067 | 1.92 ± 0.02 | -0.723 ± 0.08
4 | AGUCUG | 0.186 ± 0.024 | 1.9 ± 0.066 | 1.54 ± 0.029 | 0.414 ± 0.053
5 | CGUGAA | -0.0193 ± 0.0065 | 1.87 ± 0.051 | 1.6 ± 0.029 | 0.148 ± 0.033
6 | GGUGAC | 0.507 ± 0.018 | 1.8808 ± 0.00054 | 1.798 ± 0.0044 | 0.543 ± 0.1
7 | UGUGAC | 0.481 ± 0.0063 | 1.94 ± 0.022 | 1.839 ± 0.0072 | 0.42 ± 0.077
8 | GGUGAG | -0.242 ± 0.013 | 1.77 ± 0.063 | 1.29 ± 0.086 | 0.303 ± 0.045
9 | GGUGAU | 0.445 ± 0.047 | 1.93 ± 0.039 | 1.763 ± 0.012 | 0.5584 ± 0.0013
10 | AGUGAU | 0.509 ± 0.14 | 1.91 ± 0.065 | 1.77 ± 0.047 | 0.534 ± 0.019
11 | CGUGCA | 0.438 ± 0.026 | 1.932 ± 0.0054 | 1.72 ± 0.03 | 0.662 ± 0.033
12 | GGUGCC | 0.798 ± 0.026 | 2.009 ± 0.0084 | 1.97 ± 0.04 | 0.76 ± 0.035
13 | GGUGCG | 0.452 ± 0.027 | 1.91 ± 0.056 | 1.58 ± 0.094 | 0.656 ± 0.018
14 | UGUGCG | -0.404 ± 0.074 | 1.933 ± 0.015 | 1.684 ± 0.014 | 0.178 ± 0.0062
15 | CGUGCU | 0.599 ± 0.1 | 1.909 ± 0.0056 | 1.899 ± 0.0073 | 0.518 ± 0.04
16 | GGUGCU | 0.444 ± 0.03 | 2.022 ± 0.015 | 1.977 ± 0.015 | 0.475 ± 0.041
17 | CGUGGA | 0.123 ± 0.011 | 1.96 ± 0.02 | 1.729 ± 0.0031 | 0.396 ± 0.057
18 | GGUGGA | 0.261 ± 0.029 | 1.951 ± 0.0027 | 1.71 ± 0.026 | 0.43 ± 0.028

Row | Variant | FACS-Seq fitted mean (log10) (hypoxanthine [1]) | normalized RNA/DNA level with ligand (log10) (hypoxanthine [2]) | normalized RNA/DNA level without ligand (log10) (hypoxanthine [3]) | FACS-Seq fitted mean (log10) (hypoxanthine [4])
19 | UGUGGA | -0.645 ± 0.11 | 1.91 ± 0.06 | 1.52 ± 0.12 | -0.186 ± 0.061
20 | AGUGGA | 0.318 ± 0.0063 | 1.9085 ± 0.001 | 1.62 ± 0.047 | 0.468 ± 0.084
21 | GGUGGC | 0.217 ± 0.017 | 1.89 ± 0.039 | 1.57 ± 0.025 | 0.392 ± 0.007
22 | AGUGGC | -0.495 ± 0.045 | 1.98 ± 0.033 | 1.83 ± 0.023 | 0.0818 ± 0.018
23 | CGUGGG | 0.0862 ± 0.026 | 1.85 ± 0.022 | 1.3 ± 0.078 | 0.505 ± 0.047
24 | GGUGUA | 0.31 ± 0.061 | 1.91 ± 0.027 | 1.765 ± 0.0096 | 0.381 ± 0.023
25 | AGUGUA | -0.349 ± 0.012 | 1.9 ± 0.044 | 1.71 ± 0.035 | -0.0909 ± 0.009
26 | GGUGUG | -0.123 ± 0.13 | 1.783 ± 0.013 | 1.29 ± 0.051 | 0.24 ± 0.004
27 | UGUGUG | 0.266 ± 0.078 | 1.93 ± 0.058 | 1.676 ± 0.0071 | 0.333 ± 0.086
28 | AGUGUG | 0.0689 ± 0.056 | 1.8 ± 0.038 | 1.32 ± 0.038 | 0.489 ± 0.033
29 | CGUUAA | 0.0819 ± 0.044 | 1.89 ± 0.019 | 1.62 ± 0.049 | 0.118 ± 0.02
30 | AGUUAA | 0.799 ± 0.015 | 1.92 ± 0.04 | 1.76 ± 0.032 | 0.802 ± 0.094
31 | GGUUAC | 0.247 ± 0.029 | 1.96 ± 0.064 | 1.8 ± 0.066 | 0.276 ± 0.0034
32 | AGUUAC | 0.497 ± 0.083 | 1.89 ± 0.011 | 1.775 ± 0.016 | 0.655 ± 0.14
33 | GGUUAG | 0.17 ± 0.041 | 1.726 ± 0.017 | 1.383 ± 0.0095 | 0.458 ± 0.03
34 | AGUUAG | 0.335 ± 0.052 | 1.8 ± 0.054 | 1.44 ± 0.078 | 0.569 ± 0.019
35 | UGUUAU | -0.225 ± 0.19 | 1.89 ± 0.0069 | 1.817 ± 0.0095 | -0.287 ± 0.069
